Test results published in patent US8940861B2, “Variants of ancestral uricases and uses thereof” (Georgia Tech Research Corporation, priority 2010, dated 2015).

Substrate: O=c1[nH]c(=O)c2[nH]c(=O)[nH]c2[nH]1
Assay: purified protein, by the assay type
Details: other: 0.1M Na2HPO4/Na2H2PO4, pH 7.4, 24° C.

B1: pig uricase, SEQ ID NO:10 (Sus scrofa) (protein)
chain: MAHYRNDYKKNDEVEFVRTGYGKDMIKVLHIQRDGKYHSIKEVATSVQLTLSSKKDYLHGDNSDVIPTDTIKNTVNVLAKFKGIKSIETFAVTICEHFLSSFKHVIRAQVYVEEVPWKRFEKNGVKHVHAFIYTPTGTHFCEVEQIRNGPPVIHSGIKDLKVLKTTQSGFEGFIKDQFTTLPEVKDRCFATQVYCKWRYHQGRDVDFEATWDTVRSIVLQKFAGPYDKGEYSPSVQKTLYDIQVLTLGQVPEIEDMEISLPNIHYLNIDMSKMGLINKEEVLLPLDNPYGRITGTVKRKLTSRL
Km: 2.1 µM | kcat: 7.83 s⁻¹
